This is an account of results in publication PMC8298264, “Function of cofactor Akirin2 in the regulation of gene expression in model human neutrophil-like HL60 cells” (Bioscience Reports, 2021).

B1: sp¦Q70J99¦UN13D_HUMAN (protein, UniProt Q70J99 1-1090, looked up)
Protein unc-13 homolog D: MATLLSHPQQRPPFLRQAIKIRRRRVRDLQDPPPQMAPEIQPPSHHFSPEQRALLYEDALYTVLHRLGHPEPNHVTEASELLRYLQEAFHVEPEEHQQTLQRVRELEKPIFCLKATVKQAKGILGKDVSGFSDPYCLLGIEQGVGVPGGSPGSRHRQKAVVRHTIPEEETHRTQVITQTLNPVWDETFILEFEDITNASFHLDMWDLDTVESVRQKLGELTDLHGLRRIFKEARKDKGQDDFLGNVVLRLQDLRCREDQWYPLEPRTETYPDRGQCHLQFQLIHKRRATSASRSQPSYTVHLHLLQQLVSHEVTQHEAGSTSWDGSLSPQAATVLFLHATQKDLSDFHQSMAQWLAYSRLYQSLEFPSSCLLHPITSIEYQWIQGRLKAEQQEELAASFSSLLTYGLSLIRRFRSVFPLSVSDSPARLQSLLRVLVQMCKMKAFGELCPNTAPLPQLVTEALQTGTTEWFHLKQQHHQPMVQGIPEAGKALLGLVQDVIGDLHQCQRTWDKIFHNTLKIHLFSMAFRELQWLVAKRVQDHTTVVGDVVSPEMGESLFQLYISLKELCQLRMSSSERDGVLALDNFHRWFQPAIPSWLQKTYNEALARVQRAVQMDELVPLGELTKHSTSAVDLSTCFAQISHTARQLDWPDPEEAFMITVKFVEDTCRLALVYCSLIKARARELSSGQKDQGQAANMLCVVVNDMEQLRLVIGKLPAQLAWEALEQRVGAVLEQGQLQNTLHAQLQSALAGLGHEIRTGVRTLAEQLEVGIAKHIQKLVGVRESVLPEDAILPLMKFLEVELCYMNTNLVQENFSSLLTLLWTHTLTVLVEAAASQRSSSLASNRLKIALQNLEICFHAEGCGLPPKALHTATFQALQRDLELQAASSRELIRKYFCSRIQQQAETTSEELGAVTVKASYRASEQKLRVELLSASSLLPLDSNGSSDPFVQLTLEPRHEFPELAARETQKHKKDLHPLFDETFEFLVPAEPCRKAGACLLLTVLDYDTLGADDLEGEAFLPLREVPGLSGSEEPGEVPQTRLPLTYPAPNGDPILQLLEGRKGDREAQVFVRLRRHRAKQASQHALRPAP
B2: sp¦Q52LJ0¦FA98B_HUMAN (protein, UniProt Q52LJ0 1-433, looked up)
Protein FAM98B: MRGPEPGPQPTMEGDVLDTLEALGYKGPLLEEQALTKAAEGGLSSPEFSELCIWLGSQIKSLCNLEESITSAGRDDLESFQLEISGFLKEMACPYSVLISGDIKDRLKKKEDCLKLLLFLSTELQASQILQNKKHKNSQLDKNSEVYQEVQAMFDTLGIPKSTTSDIPHMLNQVESKVKDILSKVQKNHVGKPLLKMDLNSEQAEQLERINDALSCEYECRRRMLMKRLDVTVQSFGWSDRAKVKTDDIARIYQPKRYALSPKTTITMAHLLAAREDLSKIIRTSSGTSREKTACAINKVLMGRVPDRGGRPNEIEPPPPEMPPWQKRQEGGGGRGGWGGGGGGGGRGGGGGGGGRGGWGGGGGGWGGGGGGGGGWGGGGGGGRGGFQGRGDYGGRGGYGGRGGYGGRGYGDPYGGGGGGGGGGGGGGGYRRY
B3: sp¦Q86W42¦THOC6_HUMAN (protein, UniProt Q86W42 1-341, looked up)
THO complex subunit 6: MERAVPLAVPLGQTEVFQALQRLHMTIFSQSVSPCGKFLAAGNNYGQIAIFSLSSALSSEAKEESKKPVVTFQAHDGPVYSMVSTDRHLLSAGDGEVKAWLWAEMLKKGCKELWRRQPPYRTSLEVPEINALLLVPKENSLILAGGDCQLHTMDLETGTFTRVLRGHTDYIHCLALRERSPEVLSGGEDGAVRLWDLRTAKEVQTIEVYKHEECSRPHNGRWIGCLATDSDWMVCGGGPALTLWHLRSSTPTTIFPIRAPQKHVTFYQDLILSAGQGRCVNQWQLSGELKAQVPGSSPGLLSLSLNQQPAAPECKVLTAAGNSCRVDVFTNLGYRAFSLSF
B4: sp¦Q9BVP2¦GNL3_HUMAN (protein, UniProt Q9BVP2 1-549, looked up)
Guanine nucleotide-binding …: MKRPKLKKASKRMTCHKRYKIQKKVREHHRKLRKEAKKRGHKKPRKDPGVPNSAPFKEALLREAELRKQRLEELKQQQKLDRQKELEKKRKLETNPDIKPSNVEPMEKEFGLCKTENKAKSGKQNSKKLYCQELKKVIEASDVVLEVLDARDPLGCRCPQVEEAIVQSGQKKLVLILNKSDLVPKENLESWLNYLKKELPTVVFRASTKPKDKGKITKRVKAKKNAAPFRSEVCFGKEGLWKLLGGFQETCSKAIRVGVIGFPNVGKSSIINSLKQEQMCNVGVSMGLTRSMQVVPLDKQITIIDSPSFIVSPLNSSSALALRSPASIEVVKPMEAASAILSQADARQVVLKYTVPGYRNSLEFFTVLAQRRGMHQKGGIPNVEGAAKLLWSEWTGASLAYYCHPPTSWTPPPYFNESIVVDMKSGFNLEELEKNNAQSIRAIKGPHLANSILFQSSGLTNGIIEEKDIHEELPKRKERKQEEREDDKDSDQETVDEEVDENSSGMFAAEETGEALSEETTAGEQSTRSFILDKIIEEDDAYDFSTDYV
B5: sp¦P26639¦SYTC_HUMAN (protein, UniProt P26639 1-723, looked up)
Threonine--tRNA ligase 1, …: MFEEKASSPSGKMGGEEKPIGAGEEKQKEGGKKKNKEGSGDGGRAELNPWPEYIYTRLEMYNILKAEHDSILAEKAEKDSKPIKVTLPDGKQVDAESWKTTPYQIACGISQGLADNTVIAKVNNVVWDLDRPLEEDCTLELLKFEDEEAQAVYWHSSAHIMGEAMERVYGGCLCYGPPIENGFYYDMYLEEGGVSSNDFSSLEALCKKIIKEKQAFERLEVKKETLLAMFKYNKFKCRILNEKVNTPTTTVYRCGPLIDLCRGPHVRHTGKIKALKIHKNSSTYWEGKADMETLQRIYGISFPDPKMLKEWEKFQEEAKNRDHRKIGRDQELYFFHELSPGSCFFLPKGAYIYNALIEFIRSEYRKRGFQEVVTPNIFNSRLWMTSGHWQHYSENMFSFEVEKELFALKPMNCPGHCLMFDHRPRSWRELPLRLADFGVLHRNELSGALTGLTRVRRFQQDDAHIFCAMEQIEDEIKGCLDFLRTVYSVFGFSFKLNLSTRPEKFLGDIEVWDQAEKQLENSLNEFGEKWELNSGDGAFYGPKIDIQIKDAIGRYHQCATIQLDFQLPIRFNLTYVSHDGDDKKRPVIVHRAILGSVERMIAILTENYGGKWPFWLSPRQVMVVPVGPTCDEYAQKVRQQFHDAKFMADIDLDPGCTLNKKIRNAQLAQYNFILVVGEKEKISGTVNIRTRDNKVHGERTISETIERLQQLKEFRSKQAEEEF
B6: sp¦P43490¦NAMPT_HUMAN (protein, UniProt P43490 1-491, looked up)
Nicotinamide …: MNPAAEAEFNILLATDSYKVTHYKQYPPNTSKVYSYFECREKKTENSKLRKVKYEETVFYGLQYILNKYLKGKVVTKEKIQEAKDVYKEHFQDDVFNEKGWNYILEKYDGHLPIEIKAVPEGFVIPRGNVLFTVENTDPECYWLTNWIETILVQSWYPITVATNSREQKKILAKYLLETSGNLDGLEYKLHDFGYRGVSSQETAGIGASAHLVNFKGTDTVAGLALIKKYYGTKDPVPGYSVPAAEHSTITAWGKDHEKDAFEHIVTQFSSVPVSVVSDSYDIYNACEKIWGEDLRHLIVSRSTQAPLIIRPDSGNPLDTVLKVLEILGKKFPVTENSKGYKLLPPYLRVIQGDGVDINTLQEIVEGMKQKMWSIENIAFGSGGGLLQKLTRDLLNCSFKCSYVVTNGLGINVFKDPVADPNKRSKKGRLSLHRTPAGNFVTLEEGKGDLEEYGQDLLHTVFKNGKVTKSYSFDEIRKNAQLNIELEAAHH
B7: sp¦O60832¦DKC1_HUMAN (protein, UniProt O60832 2-514, looked up)
H/ACA ribonucleoprotein …: ADAEVIILPKKHKKKKERKSLPEEDVAEIQHAEEFLIKPESKVAKLDTSQWPLLLKNFDKLNVRTTHYTPLACGSNPLKREIGDYIRTGFINLDKPSNPSSHEVVAWIRRILRVEKTGHSGTLDPKVTGCLIVCIERATRLVKSQQSAGKEYVGIVRLHNAIEGGTQLSRALETLTGALFQRPPLIAAVKRQLRVRTIYESKMIEYDPERRLGIFWVSCEAGTYIRTLCVHLGLLLGVGGQMQELRRVRSGVMSEKDHMVTMHDVLDAQWLYDNHKDESYLRRVVYPLEKLLTSHKRLVMKDSAVNAICYGAKIMLPGVLRYEDGIEVNQEIVVITTKGEAICMAIALMTTAVISTCDHGIVAKIKRVIMERDTYPRKWGLGPKASQKKLMIKQGLLDKHGKPTDSTPATWKQEYVDYSESAKKEVVAEVVKAPQVVAEAAKTAKRKRESESESDETPPAAPQLIKKEKKKSKKDKKAKAGLESGAEPGDGDSDTTKKKKKKKKAKEVELVSE
B8: sp¦P50213¦IDH3A_HUMAN (protein, UniProt P50213 28-366, looked up)
Isocitrate dehydrogenase …: TGGVQTVTLIPGDGIGPEISAAVMKIFDAAKAPIQWEERNVTAIQGPGGKWMIPSEAKESMDKNKMGLKGPLKTPIAAGHPSMNLLLRKTFDLYANVRPCVSIEGYKTPYTDVNIVTIRENTEGEYSGIEHVIVDGVVQSIKLITEGASKRIAEFAFEYARNNHRSNVTAVHKANIMRMSDGLFLQKCREVAESCKDIKFNEMYLDTVCLNMVQDPSQFDVLVMPNLYGDILSDLCAGLIGGLGVTPSGNIGANGVAIFESVHGTAPDIAGKDMANPTALLLSAVMMLRHMGLFDHAARIEAACFATIKDGKSLTKDLGGNAKCSDFTEEICRRVKDLD
B9: sp¦O95573¦ACSL3_HUMAN (protein, UniProt O95573 1-720, looked up)
Fatty acid CoA ligase Acsl3: MNNHVSSKPSTMKLKHTINPILLYFIHFLISLYTILTYIPFYFFSESRQEKSNRIKAKPVNSKPDSAYRSVNSLDGLASVLYPGCDTLDKVFTYAKNKFKNKRLLGTREVLNEEDEVQPNGKIFKKVILGQYNWLSYEDVFVRAFNFGNGLQMLGQKPKTNIAIFCETRAEWMIAAQACFMYNFQLVTLYATLGGPAIVHALNETEVTNIITSKELLQTKLKDIVSLVPRLRHIITVDGKPPTWSEFPKGIIVHTMAAVEALGAKASMENQPHSKPLPSDIAVIMYTSGSTGLPKGVMISHSNIIAGITGMAERIPELGEEDVYIGYLPLAHVLELSAELVCLSHGCRIGYSSPQTLADQSSKIKKGSKGDTSMLKPTLMAAVPEIMDRIYKNVMNKVSEMSSFQRNLFILAYNYKMEQISKGRNTPLCDSFVFRKVRSLLGGNIRLLLCGGAPLSATTQRFMNICFCCPVGQGYGLTESAGAGTISEVWDYNTGRVGAPLVCCEIKLKNWEEGGYFNTDKPHPRGEILIGGQSVTMGYYKNEAKTKADFFEDENGQRWLCTGDIGEFEPDGCLKIIDRKKDLVKLQAGEYVSLGKVEAALKNLPLVDNICAYANSYHSYVIGFVVPNQKELTELARKKGLKGTWEELCNSCEMENEVLKVLSEAAISASLEKFEIPVKIRLSPEPWTPETGLVTDAFKLKRKELKTHYQADIERMYGRK

The subject of the first assay is human HL60 cells. Description: SWATH-MS proteomics, differential protein representation, akirin2 KO vs WT HL60 cells. It counts as cell-based. The conditions noted are these: SWATH-MS, akirin2 KO vs WT HL60 cells; sheet "Under-represented in KO". The method, boiled down:
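First, proteins from wild-type and knockout cells are digested with trypsin by FASP. Next, pooled IDA runs generate a reference ion library. Then six samples of 5 µg each are acquired by data-independent SWATH, and protein areas are normalized to the summed area of all detected proteins.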
With B1, the “Fold Change” value is 0.785 and the “Log (Fold Change)” value is -0.1051.
Take B2: the “Fold Change” value amounted to 0.7848 and the “Log (Fold Change)” value is given as -0.1053.
For B3, the “Fold Change” value was determined as 0.7851 and the “Log (Fold Change)” value is reported as -0.1051.
As to B4, the “Fold Change” value turned out to be 0.7833 and the “Log (Fold Change)” value is reported as -0.1061.
B5: the “Fold Change” value was found to be 0.7727 and the “Log (Fold Change)” value is listed as -0.112.
Turning to B6, the “Fold Change” value turned out to be 0.7897 and the “Log (Fold Change)” value is given as -0.1025.
Turning to B7, the “Fold Change” value is listed as 0.774 and the “Log (Fold Change)” value is given as -0.1113.
Consider B8, for which the “Fold Change” value is listed as 0.7755 and the “Log (Fold Change)” value was -0.1104.

Staying with this assay, now noted: akirin2 KO vs WT HL60 cells; sheet "Under-represented in KO".
Consider B9, for which the “Fold Change” value is on record as 0.3507 and the “Log (Fold Change)” value is given as -0.4551.
